Data taken from patent publication US9125896B2.

Legend:
[1] = molecular target: human epidermal growth factor receptor (EGFR) (human) (UniProt P00533)
[2] = molecular target: human epidermal growth factor receptor (EGFR) (human) (UniProt P00533); remark: listed apart in the source
[3] = molecular target: human epidermal growth factor receptor (EGFR) (human) (UniProt P00533); remark: listed apart in the source

EC50 (nM), inhibition of basal proliferation of NCI-H292 cells (WST-8, 5 days) [1] [nM] | Maximal inhibition (%) of basal proliferation of NCI-H292 cells [1] [%] | EC50 (nM), H292 tumor cell growth inhibition (Example 11, WST-8) [2] [nM] | EC50 (nM), inhibition of basal proliferation of HCC827 cells (WST-8, 5 days) [3] [nM] | Maximal inhibition (%) of basal proliferation of HCC827 cells [3] [%] | Binder
5.6 | 65 | 2.59 | 0.3 | 72 | muEGFR-6 (antibody, V domains shown) VH: QVQLQQSGAELARPGASVKLSCKASGYTFTSYWMQWVKQRPGQGLECIGALYPGDGDARYTQKFKGKATLTADRSSSTAYMQLSSLASEDSAVYYCARYDAPGYAMDYWGQGTSVTVAS VL: DIQMTQSPSSLSASLGGKVTITCKASQDINNYIAWYQHKPGKGPRLLIHYTSTLHPGIPSRFSGSGSGRDYSFSISNLEPEDIATYYCLQYDNLLYTFGGGTKLEIKR
0.4 | 77 | 0.21 | 0.03 | 72 | muEGFR-7 (antibody, V domains shown) VH: QVQLQQSGAELARPGASVKLSCKASGYTFTSYWMQWVKQRPGQGLECIGTIYPGDGDTTYTQKFKGKATLTADKSSSTAYMQLSSLASEDSAVYYCARYDAPGYAMDYWGQGTSVTVSS VL: DIQMTQSPSSLSASLGGKVTITCKASQDINNYLAWYQHKPGKGPRLLIHYTSTLHPGIPSRFSGSGSGRDYSFSISNLEPEDIATYYCLQYDNLLYTFGGGTKLEIKR
